Source: paper PMC5771398, “Structural basis for assembly of the CBF3 kinetochore complex” (The EMBO Journal, 2017)

Biological target: T1, Cep3-Ctf13-Skp1 core complex (S. cerevisiae, UniProt P40969 1-608; P35203 1-478; P52286 1-194, four phosphorylations (intact mass spectrometry); sites not given)
T1 construct: Cep3, budding yeast, full length; Ctf13, budding yeast, full length; Skp1, budding yeast, full length; Core complex as it stood in size-exclusion chromatography with Ndc10 or the Ndc10 NTD (tag cleaved); also called CBF3 core complex; coreWT; source: S. cerevisiae, co-expressed, purified (Strep-Trap, heparin, TEV, anion exchange, SEC); not shown: double-StrepTactin tag, C-terminal, cleaved; …
Assay: SEC; Superose 6 in 10 mM HEPES, 300 mM NaCl, 1 mM DTT; core and Ndc10 separated on heparin and combined, tag cleaved; stoichiometry judged by band intensities on SDS-PAGE/Coomassie
Settings: both partners purified

T1 sequence (P40969 whole entry, chain 1 of 3): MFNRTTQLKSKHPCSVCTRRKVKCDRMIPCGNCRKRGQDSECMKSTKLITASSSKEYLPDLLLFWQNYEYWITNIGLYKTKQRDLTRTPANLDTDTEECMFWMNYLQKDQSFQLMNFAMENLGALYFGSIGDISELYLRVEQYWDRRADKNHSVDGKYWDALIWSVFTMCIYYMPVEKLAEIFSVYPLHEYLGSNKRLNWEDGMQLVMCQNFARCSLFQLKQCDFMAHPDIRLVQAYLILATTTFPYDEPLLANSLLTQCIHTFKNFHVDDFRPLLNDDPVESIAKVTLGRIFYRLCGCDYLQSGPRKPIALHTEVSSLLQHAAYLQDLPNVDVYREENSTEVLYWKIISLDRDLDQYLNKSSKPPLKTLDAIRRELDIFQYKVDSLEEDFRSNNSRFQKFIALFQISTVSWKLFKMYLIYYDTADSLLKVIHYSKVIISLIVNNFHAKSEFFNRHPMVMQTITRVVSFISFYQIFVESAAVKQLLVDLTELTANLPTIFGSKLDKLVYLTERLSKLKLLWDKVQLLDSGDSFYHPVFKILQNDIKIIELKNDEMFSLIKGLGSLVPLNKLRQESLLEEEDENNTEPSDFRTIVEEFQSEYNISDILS
T1 sequence (P35203 whole entry, chain 2 of 3): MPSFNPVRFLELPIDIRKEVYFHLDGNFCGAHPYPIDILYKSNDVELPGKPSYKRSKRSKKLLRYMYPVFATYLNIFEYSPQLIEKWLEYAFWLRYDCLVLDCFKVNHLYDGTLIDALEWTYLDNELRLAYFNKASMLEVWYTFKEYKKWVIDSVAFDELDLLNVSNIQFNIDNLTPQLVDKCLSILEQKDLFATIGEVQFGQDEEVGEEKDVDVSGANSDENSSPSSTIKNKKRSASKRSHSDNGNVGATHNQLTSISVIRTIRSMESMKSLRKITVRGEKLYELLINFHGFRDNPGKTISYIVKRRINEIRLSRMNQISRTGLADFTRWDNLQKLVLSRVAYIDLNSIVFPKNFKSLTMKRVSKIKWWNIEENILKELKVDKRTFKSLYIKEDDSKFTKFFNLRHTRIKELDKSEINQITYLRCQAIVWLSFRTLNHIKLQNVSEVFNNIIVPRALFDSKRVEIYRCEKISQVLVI
T1 sequence (P52286 whole entry, chain 3 of 3): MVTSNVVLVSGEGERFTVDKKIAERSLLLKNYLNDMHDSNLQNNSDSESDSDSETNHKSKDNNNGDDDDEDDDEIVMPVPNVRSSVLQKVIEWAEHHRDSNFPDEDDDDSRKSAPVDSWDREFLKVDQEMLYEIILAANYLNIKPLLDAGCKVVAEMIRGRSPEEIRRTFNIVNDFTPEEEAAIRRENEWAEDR

stoichiometry N: 2
B1: Ndc10 (natural protein, S. cerevisiae, UniProt P32504 1-956, looked up)
chain: MRSSILFLLKLMKIMDVQQQQEAMSSEDRFQELVDSLKPRTAHQYKTYYTKYIQWCQLNQIIPTPEDNSVNSVPYKDLPISAELIHWFLLDTLITDDKPGEKREETEDLDEEEENSFKIATLKKIIGSLNFLSKLCKVHENPNANIDTKYLESVTKLHTHWIDSQKAITTNETNNTNTQVLCPPLLKVSLNLWNPETNHLSEKFFKTCSEKLRFLVDFQLRSYLNLSFEERSKIRFGSLKLGKRDRDAIIYHKVTHSAEKKDTPGHHQLLALLPQDCPFICPQTTLAAYLYLRFYGIPSVSKGDGFPNLNADENGSLLQDIPILRGKSLTTYPREETFSNYYTTVFRYCHLPYKRREYFNKCNLVYPTWDEDTFRTFFNEENHGNWLEQPEAFAFPDKIPFDFKKIMNFKSPYTSYSTNAKKDPFPPPKDLLVQIFPEIDEYKRHDYEGLSQNSRDFLDLMEVLRERFLSNLPWIYKFFPNHDIFQDPIFGNSDFQSYFNDKTIHSKGSPILSFDILPGFNKIYKNKTNFYSLLIERPSQLTFASSHNPDTHPTQKQESEGPLQMSQLDTTQLNELLKQQSFEYVQFQTLSNFQILLSVFNKIFEKLEMKKSSRGYILHQLNLFKITLDERIKKSKIDDADKFIRDNQPIKKEENIVNEDGPNTSRRTKRPKQIRLLSIADSSDESSTEDSNVFKKDGESIEDGAYGENEDENDSEMQEQLKSMINELINSKISTFLRDQMDQFELKINALLDKILEEKVTRIIEQKLGSHTGKFSTLKRPQLYMTEEHNVGFDMEVPKKLRTSGKYAETVKDNDDHQAMSTTASPSPEQDQEAKSYTDEQEFMLDKSIDSIEGIILEWFTPNAKYANQCVHSMNKSGNKSWRANCEALYKERKSIVEFYIYLVNHESLDRYKAVDICEKLRDQNEGSFSRLAKFLRKWRHDHQNSFDGLLVYLSN
notes: synthetic gene codon-optimised for S. cerevisiae; also called full-length Ndc10; source: S. cerevisiae, co-expressed with the other CBF3 subunits and Sgt1; in lysate (pull-down) and purified (heparin, anion exchange, SEC)
